From patent US20240400644A1 (ACROIMMUNE GUANGZHOU BIOTECH, published 2024) come the findings set out here.

The target in assay [1] is CD24Fc (HEK293 cell derived) (UniProt P25063). Nature of the assay: direct ELISA, antigen coated at 10 µg/ml, mAb titrated. (ELISA stands for enzyme-linked immunosorbent assay.)
The target in assay [2] is T1, Siglec10-mIgG2aFc fusion protein (human, UniProt Q96LC7 17-546, limits assumed).
T1 construct: Bought, HEK293 cell derived; also called human Siglec-10; AcroBiosystems SIO-H525b; not shown: mouse IgG2a Fc of the bought protein
T1 sequence (looked up): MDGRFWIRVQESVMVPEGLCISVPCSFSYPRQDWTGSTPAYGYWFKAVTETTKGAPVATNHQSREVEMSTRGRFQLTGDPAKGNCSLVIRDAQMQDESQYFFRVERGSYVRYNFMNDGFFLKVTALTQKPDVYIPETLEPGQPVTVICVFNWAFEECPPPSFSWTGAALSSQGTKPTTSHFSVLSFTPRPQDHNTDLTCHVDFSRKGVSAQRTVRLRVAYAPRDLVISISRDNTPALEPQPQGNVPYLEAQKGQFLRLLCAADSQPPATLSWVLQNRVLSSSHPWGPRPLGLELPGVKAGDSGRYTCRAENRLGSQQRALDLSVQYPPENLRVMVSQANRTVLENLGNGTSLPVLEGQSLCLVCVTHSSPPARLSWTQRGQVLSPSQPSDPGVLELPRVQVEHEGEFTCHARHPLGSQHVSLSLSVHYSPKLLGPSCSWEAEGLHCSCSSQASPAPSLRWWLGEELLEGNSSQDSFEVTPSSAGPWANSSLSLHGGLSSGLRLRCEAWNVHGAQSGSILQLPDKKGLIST
Nature of the assay: ELISA, Siglec10-mIgG2aFc coated at 0.2 µg/mL, fusion protein titrated. The protocol: 96-well plates were coated (100 μL per well) with 0.2 μg/mL of HEK293 cell derived Siglec10-mlgG2aFc fusion protein (AcroBiosystems, SIO-H525b) at 4° C. overnight. After blocking with SuperBlock (Thermo, 37515) at room temperature for 1 hour, 100 μL of 2-fold serial dilutions of AI-071 or CD24Fc protein (all starting at 1.5 mg/mL) were added. The bound AI-071 or CD24Fc protein was then detected by HRP-labeled goat anti-human IgG-Fc antibody (1:5000, Invitrogen, A18829) followed by the addition of tetramethylbenzidine (TMB) substrates. The EC50 values of the binding are shown in the underneath table.
To probe the interaction of AI-071 protein with the members of Siglec family such as Siglec10, an ELSIA assay was developed. In-brief, 96-well plates were coated (100 μL per well) with 0.2 μg/mL of HEK293 cell derived Siglec10-mlgG2aFc fusion protein (AcroBiosystems, SIO-H525b) at 4° C. overnight. After washing and blocking with SuperBlock (Thermo, 37515) at room temperature for 1 hour, 100 μL of 2-fold serial dilutions of either AI-71 or CD24Fc (all starting at 1.5 mg/ml) were added. The bound AI-071 or CD24Fc protein was then detected by HRP-labeled goat anti-human IgG-Fc antibody (1:5000, Invitrogen, A18829) followed by the addition of Tetramethylbenzidin (TMB) substrates. […] The OD values at a wavelength of 450 nm (OD 450 nm) in each well were then measured.

A further assay has as its target T2, HMGB1-His tag protein (human, UniProt P09429 1-215, limits assumed).
T2 construct: Bought, HEK293 cell derived; also called human HMGB1; HMGB1-His protein; not shown: His tag
T2 sequence (looked up): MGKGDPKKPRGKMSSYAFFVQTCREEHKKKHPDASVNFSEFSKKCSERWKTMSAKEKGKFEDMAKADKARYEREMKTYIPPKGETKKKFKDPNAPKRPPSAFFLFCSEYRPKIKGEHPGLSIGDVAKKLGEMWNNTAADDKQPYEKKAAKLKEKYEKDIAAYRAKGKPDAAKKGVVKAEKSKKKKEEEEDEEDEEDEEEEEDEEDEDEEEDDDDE
Briefly: ELISA, HMGB1-His coated at 0.1 µg/mL, fusion protein titrated. As to the method: 96-well plates were coated (100 μL per well) with 0.1 μg/mL HEK293 cell derived HMGB1-His tag protein (AcroBiosystems, HM1-H5220) at 4° C. overnight. After blocking with SuperBlock (Thermo, 37515) at room temperature for 1 hour, 100 μL of 2-fold serial dilutions of AI-071 or CD24Fc (all starting at 1.5 mg/mL, dilution buffer: PBST-1% BSA solution containing 1 mM MgCl2 and 1 mM CaCl2) were added. The bound AI-071 or CD24Fc protein was then detected by adding HRP-labeled goat anti-human IgG-Fc antibody (1:1000, Invitrogen, A18829), followed by the addition of tetramethylbenzidin (TMB) substrates. The EC50 values of the binding are shown in the underneath table. […] Recombinant HMGB1-His protein sample was incubated with AI-071, human IgG-Fc, or none for 5 min, the mixture was then incubated with protein A-conjugated beads to capture (or pull-down) the bound proteins. The captured proteins were then separated in a SDS-PAGE gel and visualized by Coomassie Brilliant Blue dye staining. […] As indicated on the top of each gel, lane 1 represents the sample containing HMGB1 only, lane 2 represents the sample containing HMGB1 and human IgG-Fc, and lane 3 represents the sample containing HMGB1 and AI-071, lane M is the protein molecule weight marker sample. […]

In general, EC50 refers to the concentration giving half of the maximal effect. The low end stands for an effect from little substance, the high end for a need for much substance.

As for SN3 mouse anti-CD24 mAb (antibody), in assay [1], the EC50 worked out at 0.00468 µM. For the molecule SETTTGTSSNSSQSTSNSGLAPNPTNATTKAAG (Fc fusion, UniProt P25063 27-59, looked up, not shown: Fc part) [CD24Fc (producing cell not stated)], the EC50 came out at 2.85 µM in assay [2] and 51 µM with HMGB1-His tag protein.
